The values that follow come from paper PMC6375885, “Specific Inhibition of Soluble γc Receptor Attenuates Collagen-Induced Arthritis by Modulating the Inflammatory T Cell Responses” (Frontiers in Immunology, 2019).

The data set concerns the molecule itself. The experiment in a line: immunoprecipitation, non-reducing SDS-PAGE and immunoblot; culture supernatant of transfected HEK293T cells precipitated with α-mouse IL-2Rγ antibody and protein A/G agarose; resolved under non-reducing conditions (DTT-); blotted with biotinylated α-mouse IL-2Rγ antibody; dimer and monomer bands.

B1: soluble common gamma chain (sγc), wild type (natural protein)
chain: WSSKVLMSSANEDIKADLILTSTAPEHLSAPTLPLPEVQCFVFNIEYMNCTWNSSSEPQATNLTLHYRYKVSDNNTFQECSHYLFSKEITSGCQIQKEDIQLYQTFVVQLQDPQKPQRRAVQKLNLQNLVIPRAPENLTLSNLSESQLELRWKSRHIKERCLQYLVQYRSNRDRSWTELIVNHEPRFSLPSVDELKRYTFRVRSRYNPICGSSQQWSKWSQPVHWGSHTVEECLQFPPSRI
notes: signal peptide in the construct; common gamma chain (γc, IL-2Rγ), the part before the new C-terminal 9 a.a. of the alternatively spliced soluble form; not part of the membrane form of γc; Secreted; found as a disulfide-linked dimer and as a monomer in the supernatant; The reverse primer has no stop codon, so a C-terminal tag from the vector may follow (surmise; also called WT sγc; soluble γc; …)
For the protein B1, the “stoichiometry N” value was 2.
